In experiment [1] the target is T1, wild-type human Macrophage Migration Inhibitory Factor (human), P14174.
T1 chain: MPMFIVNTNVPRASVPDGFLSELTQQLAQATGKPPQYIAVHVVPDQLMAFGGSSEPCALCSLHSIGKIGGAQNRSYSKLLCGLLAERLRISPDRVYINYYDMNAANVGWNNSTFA
Kind of experiment: static light scattering (multi-angle); purified MIF 20-30 µM in PBS 1X, room temperature, DAWN HELEOS II with UV and refractive index detectors; oligomeric state of the protein with itself. The following applies: remark: other sources report otherwise.

Experiment [2] has as its target T1, wild-type human Macrophage Migration …. Kind of experiment: AUC; sedimentation velocity, 50,000 rpm, 20°C, PBS 1X pH 7.4, protein 5-50 µM (15 µM in Figure 3); c(s) analysis with SEDFIT; oligomeric state of the protein with itself. As to conditions: remark: other sources report otherwise.

From PMC3448610 come the findings set out here.

As usually defined, the stoichiometry N is the number of molecules, sites or subunits per partner or assembly.

B1: wild-type human Macrophage Migration Inhibitory Factor, P14174 1-115 (natural protein)
chain: MPMFIVNTNVPRASVPDGFLSELTQQLAQATGKPPQYIAVHVVPDQLMAFGGSSEPCALCSLHSIGKIGGAQNRSYSKLLCGLLAERLRISPDRVYINYYDMNAANVGWNNSTFA
For B1, the stoichiometry N in experiment [1] and in experiment [2] was 3 throughout.
